Source: patent US20200054763A1 (DEBIOPHARM INTERNATIONAL S A, published 2020)

Target: T1, human CD37 (human, UniProt P11049 1-281)
T1 sequence: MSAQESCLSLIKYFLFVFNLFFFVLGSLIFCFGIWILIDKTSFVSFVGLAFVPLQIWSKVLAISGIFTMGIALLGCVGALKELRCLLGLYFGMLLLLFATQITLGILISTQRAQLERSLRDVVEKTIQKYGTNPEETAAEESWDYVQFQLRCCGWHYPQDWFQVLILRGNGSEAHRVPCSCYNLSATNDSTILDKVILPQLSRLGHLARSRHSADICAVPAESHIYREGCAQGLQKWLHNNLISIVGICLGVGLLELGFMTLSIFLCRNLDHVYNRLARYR
Test: cell-based or functional assay

B1: IMGN529 (naratuximab emtansine) (antibody, V domains shown)
VH: QVQVQESGPGLVAPSQTLSITCTVSGFSLTTSGVSWVRQPPGKGLEWLGVIWGDGSTNYHPSLKSRLSIKKDHSKSQVFLKLNSLTAADTATYYCAKGGYSLAHWGQGTLVTVSS
VL: DIQMTQSPSSLSVSVGERVTITCRASENIRSNLAWYQQKPGKSPKLLVNVATNLADGVPSRFSGSGSGTDYSLKINSLQPEDFGTYYCQHYWGTTWTFGQGTKLEIKR
modifications: maytansinoid DM1 linked through the SMCC linker; attachment residues and chain not stated
  median IC50, cell proliferation (MTT assay, 72 hours), B cell lymphoma cell lines (n=46): 0.45 nM
  median IC50, cell proliferation (MTT assay, 72 hours), T cell lymphoma cell lines (n=8): 22.5 nM
  median IC50, cell proliferation (MTT assay, 72 hours), fifty-four lymphoma cell lines: 0.79 nM
